Laboratory results: the supplement of paper PMC9732359
± gives the uncertainty stated by the source.

Test: protein stability index of a GFP-peptide fusion (yeast GPS) (PSI 1-4); higher = more stable; sorted into four equal gates, so the index is relative within each strain
In short: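 Yeast carrying a pooled library were grown to mid-log phase in leucine-free medium. Each library plasmid expresses Cherry and has a tiled 17-residue yeast protein peptide fused downstream of GFP. Cells were sorted into four equal gates by GFP/Cherry ratio, and plasmids from each gate were PCR-amplified, Illumina-sequenced and assigned to strains by barcode. Summing, across gates, the read frequency times the gate number gave each peptide's protein stability index.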

Sequence	protein stability index (doa10∆)	protein stability index (pdr5∆)	protein stability index (san1∆)	protein stability index (ubr1∆)
WGGFPLDISVFLLEKAG [TAF14]	3.2 ± 0.11	3.38 ± 0.067	3.26 ± 0.06	3.15 ± 0.075
WIQVFGLRTENVLDYFA [MED6]			2.38 ± 0.14	2.34 ± 0.067
WKEVLAHNPELERYVKR [RPO31]	3.6 ± 0.11	3.85 ± 0.25	3.38 ± 0.1	3.45 ± 0.099
WKNLVLKLSQAFGSSAT [YJR042W/NUP85]	2.58 ± 0.055	1.95 ± 0.053	2.22 ± 0.055	1.93 ± 0.044
WKYEDVVAKLEDKRKVR [RPL16B]	3.12 ± 0.064	2.32 ± 0.059	2.36 ± 0.093	2.02 ± 0.045
WMMNGALQILNSGIIPG [FAS2]	1.7 ± 0.092	1.86 ± 0.092	2.52 ± 0.15	1.46 ± 0.24
WNLNQFQIEADFIGHNS [ASC1]	2.79 ± 0.079	2.7 ± 0.058	2.95 ± 0.076	2.52 ± 0.059
WNRLTISVTDTEVERAK [COR1]	3.19 ± 0.09	3.12 ± 0.076	3.08 ± 0.051	3.21 ± 0.085
WTEASSSGAGTVKLYLP [ECM29]	2.05 ± 0.052	1.82 ± 0.047	2.09 ± 0.067	2.02 ± 0.05
YAIIINYTKDNEYYPMC [YCS4]	1.36 ± 0.071	1.44 ± 0.092	1.61 ± 0.13	1.51 ± 0.082
YAKEDAFSYPRMYEEAS [RPN2]	2.66 ± 0.091	1.35 ± 0.082	1.27 ± 0.11	1.43 ± 0.058
YASKINRAEGPEELARI [RGR1]	3.31 ± 0.12	3.26 ± 0.085	3.31 ± 0.067	3.24 ± 0.071
YAVAEQCPVKSAEDQLY [QCR2]	3.22 ± 0.13		3.15 ± 0.14	3.34 ± 0.21
YDEDPYGFEDESAPITA [RPB2]	3.05 ± 0.071	3.18 ± 0.054	3.24 ± 0.048	3.17 ± 0.065
YDGDTVTFSPTGRLFQV [PRE5]	2.96 ± 0.089	2.98 ± 0.12	2.94 ± 0.14	3.08 ± 0.061
YDPKDALKNACNSIINK [RPB11]	3.32 ± 0.24	3.23 ± 0.14	3.2 ± 0.084	3.37 ± 0.15
YEAPRHGHLGFLPRKRA [RPL3]	2.99 ± 0.1	3.03 ± 0.071	2.88 ± 0.05	2.72 ± 0.09
YEDSGSTYKHDRGIANI [SRB4]	3.29 ± 0.13	3.29 ± 0.14	3.25 ± 0.097	3.36 ± 0.096
YEFPIEGIEIYDRKKLP [RPC11]	3.16 ± 0.14	3.01 ± 0.094	1.91 ± 0.14	3.3 ± 0.17
YEMVIREKNALKRLAWQ [ISW2]	2.08 ± 0.047	2.5 ± 0.062	2.32 ± 0.048	2.37 ± 0.055
YEQHIENIEPLDPINLP [PRP8]	2.38 ± 0.11	2.9 ± 0.091	2.5 ± 0.1	2.8 ± 0.071
YFKSILLNKNTGNNLYD [SWI1]	2.59 ± 0.048	2.42 ± 0.036	2.04 ± 0.05	2.19 ± 0.031

Sequence	protein stability index (doa10∆)	protein stability index (pdr5∆)	protein stability index (san1∆)	protein stability index (ubr1∆)
YFLRRQYILQIVSFIVN [YJL039C/NUP192]	1.2 ± 0.048	1.38 ± 0.068	1.31 ± 0.14	1.1 ± 0.055
YFRILLPYERHMISQEG [SWI1]	1.37 ± 0.052	1.54 ± 0.047	1.5 ± 0.097	1.6 ± 0.045
YGGDGLDPLEMEGNAQP [RPO31]	3.39 ± 0.081	3.43 ± 0.09	3.28 ± 0.07	3.29 ± 0.089
YGKLRNGMFCQVPSSLI [RRP4]	2.22 ± 0.066	2 ± 0.1	2.4 ± 0.09	2 ± 0.072
YGRDDMENIKKSIDSKT [ISW2]	2.87 ± 0.11	2.94 ± 0.1	3.21 ± 0.062	3.03 ± 0.082
YHGNECEINYYEILLKI [SRB8]	1.66 ± 0.055	2.86 ± 0.082	2.24 ± 0.089	2.4 ± 0.082
YIDEMYNHNDGGDGRDY [RRI1]	2.47 ± 0.1	3.26 ± 0.1	3.3 ± 0.21	2.75 ± 0.13
YILSLVSIKDSTGCVVG [YMR129W/POM152]	1.41 ± 0.041	1.47 ± 0.047	1.92 ± 0.062	1.48 ± 0.034
YISLLKLQGLYENIPIY [YDL116W/NUP84]	1.67 ± 0.06	1.42 ± 0.045	1.59 ± 0.12	1.25 ± 0.041
YIYSQETKSWINESAEN [MED1]	2.58 ± 0.047	2.66 ± 0.039	2.46 ± 0.048	2.48 ± 0.031
YKDVSDLIRSESMLHLS [IRR1]	2 ± 0.071	2.29 ± 0.054	2.11 ± 0.093	2.01 ± 0.043
YKHIDASGSINRKVLQA [RPS19A]	2.06 ± 0.072	3.27 ± 0.12	2.49 ± 0.073	2.53 ± 0.083
YKVDAEGKVTKLRRECS [RPS31]	2.68 ± 0.12	2.92 ± 0.14	2.67 ± 0.12	3.22 ± 0.078
YLCFILSTRAGGLGLNL [SNF2]	2.32 ± 0.08	2.04 ± 0.095	2.19 ± 0.12	2.6 ± 0.11
YLERTLDTFIKIDGNPD [PRE5]	2.73 ± 0.098	3.2 ± 0.092	3.04 ± 0.055	3.3 ± 0.078
YLTPPHECRLRDMTYSA [RET1]	3.22 ± 0.11	3.02 ± 0.12	2.76 ± 0.16	3.14 ± 0.15
YMDKAKQYDNRITKSNE [LRP1]	3.08 ± 0.063	2.91 ± 0.056	2.97 ± 0.057	2.94 ± 0.074
YMKFSNKYLELCKLASN [RRI2]	1.64 ± 0.05	1.87 ± 0.039	1.57 ± 0.092	1.76 ± 0.037
YNSVRPFGVSTIFGGVD [PRE10]	2.53 ± 0.083	2.71 ± 0.068	2.59 ± 0.14	2.57 ± 0.045
YNTNFNLLLRELNVEKL [SRP72]	2.9 ± 0.091	3.18 ± 0.11	2.89 ± 0.089	3.26 ± 0.056
YPEVVTPYNIDRLTQLV [RPO21]	2.56 ± 0.2			
YPREEEEDYNEFNSIDR [PRP8]	3.32 ± 0.09	3.24 ± 0.1	3.1 ± 0.068	3.27 ± 0.08
